Assay results published in patent US20200317768A1 (published 2020).
Residue numbers refer to the chain shown, from its start. Numbers in names are those of the source.

B1: GpH7-B3 variant G236N/GpL16-k0 (antibody, human IgG1, kappa)
heavy: not shown
light: DIVMTQSPLSLPVTPGEPASISCQASESLVHSNRNTYLHWYLQKPGQSPQLLIYKVSNRFSGVPDRFSGSGSGTDFTLKISRVEAEDVGVYYCSQNTHVPPTFGQGTKVEIERTVAAPSVFIFPPSDEQLKSGTASVVCLLNNFYPREAKVQWKVDNALQSGNSQESVTEQDSKDSTYSLSSTLTLSKADYEKHKVYACEVTHQGLSSPVTKSFNRGEC
B2: GpH7-B3 variant G237D/GpL16-k0 (antibody, human IgG1, kappa)
heavy: not shown
light: B1 light
B3: GpH7-B3 variant K326T/GpL16-k0 (antibody, human IgG1, kappa)
heavy: not shown
light: B1 light
B4: GpH7-B3 variant K334I/GpL16-k0 (antibody, human IgG1, kappa)
heavy: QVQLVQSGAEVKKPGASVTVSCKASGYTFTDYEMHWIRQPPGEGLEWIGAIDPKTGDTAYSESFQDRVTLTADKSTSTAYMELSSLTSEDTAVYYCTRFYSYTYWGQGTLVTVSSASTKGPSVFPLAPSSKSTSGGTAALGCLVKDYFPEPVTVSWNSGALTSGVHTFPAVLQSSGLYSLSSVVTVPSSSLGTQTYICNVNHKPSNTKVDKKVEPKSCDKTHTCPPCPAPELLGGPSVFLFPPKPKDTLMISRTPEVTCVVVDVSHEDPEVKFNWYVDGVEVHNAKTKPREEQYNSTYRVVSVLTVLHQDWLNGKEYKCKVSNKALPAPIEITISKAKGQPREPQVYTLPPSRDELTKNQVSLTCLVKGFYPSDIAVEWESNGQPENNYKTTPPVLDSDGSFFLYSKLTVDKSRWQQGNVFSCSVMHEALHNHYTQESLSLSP
light: B1 light
B5: GpH7-B3 variant G236S/GpL16-k0 (antibody, human IgG1, kappa)
heavy: not shown
light: B1 light
B6: GpH7-B3 variant V266F/GpL16-k0 (antibody, human IgG1, kappa)
heavy: not shown
light: B1 light
B7: GpH7-B3 variant N325F/GpL16-k0 (antibody, human IgG1, kappa)
heavy: not shown
light: B1 light
B8: GpH7-B3 variant K334V/GpL16-k0 (antibody, human IgG1, kappa)
heavy: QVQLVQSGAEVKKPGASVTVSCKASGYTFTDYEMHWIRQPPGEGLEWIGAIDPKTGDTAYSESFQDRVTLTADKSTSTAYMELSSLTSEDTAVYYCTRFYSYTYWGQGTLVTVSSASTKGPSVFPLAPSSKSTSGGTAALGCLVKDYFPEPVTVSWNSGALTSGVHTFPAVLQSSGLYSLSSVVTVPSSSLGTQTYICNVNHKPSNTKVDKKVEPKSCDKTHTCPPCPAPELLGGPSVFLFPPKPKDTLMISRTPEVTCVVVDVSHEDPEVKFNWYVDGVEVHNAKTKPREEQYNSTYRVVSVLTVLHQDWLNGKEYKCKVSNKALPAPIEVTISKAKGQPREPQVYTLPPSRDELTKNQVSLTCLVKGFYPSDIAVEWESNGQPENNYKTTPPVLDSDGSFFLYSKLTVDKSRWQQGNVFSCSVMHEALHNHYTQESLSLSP
light: B1 light
B9: GpH7-B3 variant P271D/GpL16-k0 (antibody, human IgG1, kappa)
heavy: not shown
light: B1 light
B10: GpH7-B3 variant P331E/GpL16-k0 (antibody, human IgG1, kappa)
heavy: not shown
light: B1 light
B11: GpH7-B3 variant G236A/GpL16-k0 (antibody, human IgG1, kappa)
heavy: not shown
light: B1 light
B12: GpH7-B3 variant I332D/GpL16-k0 (antibody, human IgG1, kappa)
heavy: not shown
light: B1 light
B13: GpH7-B3 variant L235W/GpL16-k0 (antibody, human IgG1, kappa)
heavy: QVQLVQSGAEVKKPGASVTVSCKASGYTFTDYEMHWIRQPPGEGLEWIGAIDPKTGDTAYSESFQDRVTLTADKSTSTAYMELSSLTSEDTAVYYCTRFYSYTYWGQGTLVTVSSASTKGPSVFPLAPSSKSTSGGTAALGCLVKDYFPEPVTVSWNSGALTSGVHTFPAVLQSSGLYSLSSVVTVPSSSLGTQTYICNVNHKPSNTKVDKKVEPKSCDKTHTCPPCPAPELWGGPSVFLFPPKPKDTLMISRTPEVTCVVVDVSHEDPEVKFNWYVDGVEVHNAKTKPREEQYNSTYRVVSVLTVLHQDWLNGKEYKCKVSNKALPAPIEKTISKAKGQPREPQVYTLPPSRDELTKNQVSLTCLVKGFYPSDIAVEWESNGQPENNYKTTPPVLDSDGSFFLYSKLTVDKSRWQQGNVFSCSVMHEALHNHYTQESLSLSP
light: B1 light
B14: GpH7-B3 variant P271G/GpL16-k0 (antibody, human IgG1, kappa)
heavy: not shown
light: B1 light
B15: GpH7-B3 variant P238Y/GpL16-k0 (antibody, human IgG1, kappa)
heavy: not shown
light: B1 light
B16: GpH7-B3 variant K334D/GpL16-k0 (antibody, human IgG1, kappa)
heavy: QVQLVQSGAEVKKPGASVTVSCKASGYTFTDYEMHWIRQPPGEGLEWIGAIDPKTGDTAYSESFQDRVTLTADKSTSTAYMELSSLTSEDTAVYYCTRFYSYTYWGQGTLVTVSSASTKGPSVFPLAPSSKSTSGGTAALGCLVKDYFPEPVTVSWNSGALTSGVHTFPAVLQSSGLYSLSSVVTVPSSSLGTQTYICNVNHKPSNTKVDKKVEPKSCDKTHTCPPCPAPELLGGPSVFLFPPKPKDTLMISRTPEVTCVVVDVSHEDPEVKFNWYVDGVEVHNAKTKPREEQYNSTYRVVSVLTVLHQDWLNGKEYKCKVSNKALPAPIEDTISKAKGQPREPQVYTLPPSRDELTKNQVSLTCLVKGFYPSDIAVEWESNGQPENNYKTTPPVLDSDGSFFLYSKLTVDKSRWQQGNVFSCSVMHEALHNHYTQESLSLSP
light: B1 light
B17: GpH7-B3 variant L234Y/GpL16-k0 (antibody, human IgG1, kappa)
heavy: not shown
light: B1 light
B18: GpH7-B3 variant G236E/GpL16-k0 (antibody, human IgG1, kappa)
heavy: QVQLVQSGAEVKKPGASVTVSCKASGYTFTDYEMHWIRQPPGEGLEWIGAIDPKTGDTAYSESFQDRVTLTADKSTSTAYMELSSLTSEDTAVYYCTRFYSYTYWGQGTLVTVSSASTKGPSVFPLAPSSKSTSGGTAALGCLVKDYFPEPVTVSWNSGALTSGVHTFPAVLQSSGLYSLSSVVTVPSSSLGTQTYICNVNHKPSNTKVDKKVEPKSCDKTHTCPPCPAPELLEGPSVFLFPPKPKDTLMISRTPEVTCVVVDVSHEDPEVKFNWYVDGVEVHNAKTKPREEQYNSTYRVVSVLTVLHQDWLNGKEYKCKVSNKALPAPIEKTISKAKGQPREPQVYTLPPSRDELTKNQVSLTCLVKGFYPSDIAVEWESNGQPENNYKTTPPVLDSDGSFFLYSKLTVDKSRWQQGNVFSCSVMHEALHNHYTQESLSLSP
light: B1 light
B19: GpH7-B3 variant L328T/GpL16-k0 (antibody, human IgG1, kappa)
heavy: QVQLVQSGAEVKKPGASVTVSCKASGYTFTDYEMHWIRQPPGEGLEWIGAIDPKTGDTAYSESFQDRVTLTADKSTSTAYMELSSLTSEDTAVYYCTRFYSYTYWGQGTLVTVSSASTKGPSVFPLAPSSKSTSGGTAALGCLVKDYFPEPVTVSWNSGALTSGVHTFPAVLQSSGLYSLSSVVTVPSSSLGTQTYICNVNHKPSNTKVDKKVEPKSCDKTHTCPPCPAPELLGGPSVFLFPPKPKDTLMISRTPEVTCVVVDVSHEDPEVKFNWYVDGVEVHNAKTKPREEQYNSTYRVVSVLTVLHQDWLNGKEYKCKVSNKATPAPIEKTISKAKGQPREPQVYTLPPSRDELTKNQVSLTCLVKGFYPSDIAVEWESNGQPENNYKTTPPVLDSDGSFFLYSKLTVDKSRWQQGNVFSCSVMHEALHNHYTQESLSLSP
light: B1 light
B20: GpH7-B3 variant K334M/GpL16-k0 (antibody, human IgG1, kappa)
heavy: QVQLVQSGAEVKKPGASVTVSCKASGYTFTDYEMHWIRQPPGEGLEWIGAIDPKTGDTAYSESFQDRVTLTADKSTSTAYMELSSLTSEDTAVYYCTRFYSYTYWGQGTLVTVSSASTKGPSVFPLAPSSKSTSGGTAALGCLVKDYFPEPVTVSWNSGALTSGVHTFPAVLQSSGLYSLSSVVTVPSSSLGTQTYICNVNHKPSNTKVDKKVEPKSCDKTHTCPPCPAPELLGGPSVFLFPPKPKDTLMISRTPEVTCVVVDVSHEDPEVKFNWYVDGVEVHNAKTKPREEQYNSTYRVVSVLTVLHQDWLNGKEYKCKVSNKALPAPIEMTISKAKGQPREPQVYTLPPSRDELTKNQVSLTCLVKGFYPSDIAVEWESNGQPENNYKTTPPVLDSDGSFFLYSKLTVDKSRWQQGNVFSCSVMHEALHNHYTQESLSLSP
light: B1 light
B21: GpH7-B3 variant H268D/GpL16-k0 (antibody, human IgG1, kappa)
heavy: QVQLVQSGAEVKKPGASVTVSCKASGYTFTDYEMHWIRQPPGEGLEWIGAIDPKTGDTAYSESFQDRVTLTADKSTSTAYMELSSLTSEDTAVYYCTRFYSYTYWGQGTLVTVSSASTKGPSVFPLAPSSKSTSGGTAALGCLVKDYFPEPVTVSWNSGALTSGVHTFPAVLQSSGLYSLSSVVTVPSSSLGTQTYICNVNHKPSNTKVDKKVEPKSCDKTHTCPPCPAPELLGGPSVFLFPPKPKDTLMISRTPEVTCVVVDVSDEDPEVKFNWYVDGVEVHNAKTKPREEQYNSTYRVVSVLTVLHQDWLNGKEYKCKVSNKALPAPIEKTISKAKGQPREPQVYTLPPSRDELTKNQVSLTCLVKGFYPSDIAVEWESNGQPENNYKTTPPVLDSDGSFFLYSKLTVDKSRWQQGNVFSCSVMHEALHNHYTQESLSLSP
light: B1 light
B22: GpH7-B3 variant N325E/GpL16-k0 (antibody, human IgG1, kappa)
heavy: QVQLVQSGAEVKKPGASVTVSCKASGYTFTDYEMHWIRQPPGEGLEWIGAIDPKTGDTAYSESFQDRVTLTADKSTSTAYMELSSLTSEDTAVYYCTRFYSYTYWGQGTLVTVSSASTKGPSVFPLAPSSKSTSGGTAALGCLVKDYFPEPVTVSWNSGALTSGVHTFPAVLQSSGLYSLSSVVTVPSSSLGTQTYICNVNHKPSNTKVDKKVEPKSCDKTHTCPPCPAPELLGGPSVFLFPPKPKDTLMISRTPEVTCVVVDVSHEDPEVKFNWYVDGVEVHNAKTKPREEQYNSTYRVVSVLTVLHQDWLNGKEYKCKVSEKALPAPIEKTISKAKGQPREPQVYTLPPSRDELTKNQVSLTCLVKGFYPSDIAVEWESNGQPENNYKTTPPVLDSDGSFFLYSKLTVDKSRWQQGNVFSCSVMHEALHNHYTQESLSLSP
light: B1 light
B23: GpH7-B3 variant G236D/GpL16-k0 (antibody, human IgG1, kappa)
heavy: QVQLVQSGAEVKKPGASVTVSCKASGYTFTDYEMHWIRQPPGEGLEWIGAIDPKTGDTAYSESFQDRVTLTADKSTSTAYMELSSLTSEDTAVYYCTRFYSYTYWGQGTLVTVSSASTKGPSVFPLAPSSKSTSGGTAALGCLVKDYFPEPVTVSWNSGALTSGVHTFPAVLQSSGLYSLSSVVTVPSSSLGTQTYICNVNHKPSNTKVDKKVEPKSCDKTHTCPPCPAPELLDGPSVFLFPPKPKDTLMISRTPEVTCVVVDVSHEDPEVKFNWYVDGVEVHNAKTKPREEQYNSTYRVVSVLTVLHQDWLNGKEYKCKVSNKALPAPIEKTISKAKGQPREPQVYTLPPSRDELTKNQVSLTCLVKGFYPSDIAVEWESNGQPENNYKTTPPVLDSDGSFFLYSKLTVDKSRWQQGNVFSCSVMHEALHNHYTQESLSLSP
light: B1 light
B24: GpH7-B3 variant L234W/GpL16-k0 (antibody, human IgG1, kappa)
heavy: not shown
light: B1 light
B25: GpH7-B3 variant K334Y/GpL16-k0 (antibody, human IgG1, kappa)
heavy: not shown
light: B1 light
B26: GpH7-B3 variant P238Q/GpL16-k0 (antibody, human IgG1, kappa)
heavy: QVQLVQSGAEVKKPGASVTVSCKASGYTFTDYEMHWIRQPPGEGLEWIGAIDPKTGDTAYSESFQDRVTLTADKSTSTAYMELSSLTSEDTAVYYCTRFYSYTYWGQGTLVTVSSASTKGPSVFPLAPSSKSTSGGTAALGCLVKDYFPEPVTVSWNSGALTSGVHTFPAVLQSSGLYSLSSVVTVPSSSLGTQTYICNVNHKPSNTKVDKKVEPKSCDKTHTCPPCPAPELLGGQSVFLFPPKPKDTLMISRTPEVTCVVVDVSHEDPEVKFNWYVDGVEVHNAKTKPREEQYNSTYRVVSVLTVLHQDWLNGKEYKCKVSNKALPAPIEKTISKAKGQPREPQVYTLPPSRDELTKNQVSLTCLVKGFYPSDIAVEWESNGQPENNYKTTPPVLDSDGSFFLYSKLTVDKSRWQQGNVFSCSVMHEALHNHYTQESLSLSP
light: B1 light
B27: GpH7-B3 variant H268E/GpL16-k0 (antibody, human IgG1, kappa)
heavy: not shown
light: B1 light
B28: GpH7-B3 variant S239P/GpL16-k0 (antibody, human IgG1, kappa)
heavy: not shown
light: B1 light
B29: GpH7-B3 variant A327I/GpL16-k0 (antibody, human IgG1, kappa)
heavy: not shown
light: B1 light

Target: T1, human FcγRIIb extracellular domain, C-terminal His-tag (human, UniProt P31994 43-217)
T1 construct: also called FcgRIIb (human)
T1 sequence: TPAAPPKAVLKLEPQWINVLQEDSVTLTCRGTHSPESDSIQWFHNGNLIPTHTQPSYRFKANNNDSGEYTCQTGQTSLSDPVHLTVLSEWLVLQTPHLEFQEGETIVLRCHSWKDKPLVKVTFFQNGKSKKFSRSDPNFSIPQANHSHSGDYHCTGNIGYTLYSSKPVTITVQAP
Assay: SPR 25C; FcgR bound per captured antibody, relative to parent B3
Procedure: (§1) These Fc variants are referred to as B3 variants. B3 variants were expressed and the binding of protein-A purified antibodies to each FcγR (FcγRIIa type H. FcγRIIa type R, FcγRIIb, and FcγRIIIaF) was comprehensively evaluated as follows. Analysis of interaction between each altered antibody and the Fcγ receptor prepared as mentioned above was carried out using BIACORE® T100 (GE Healthcare), BIACORE® T200 (GE Healthcare), BIACORE® A100, or BIACORE® 4000. HBS-EP+(GE Healthcare) was used as the running buffer, and the measurement temperature was set to 25° C. Chips produced by immobilizing Protein A (Thermo Scientific), Protein A/G (Thermo Scientific), or Protein L (ACTIGEN or BioVision) by the amine coupling method to a Series S sensor Chip CM5 or CM4 (GE Healthcare) were used. After capturing of antibodies of interest onto these sensor chips, an Fcγ receptor diluted with the running buffer was allowed to interact, the amount bound to an antibody was measured. However, since the amount of Fcγ receptor bound depends on the amount of the captured antibodies, the amount of Fcγ receptor bound was divided by the amount of each antibody captured to obtain corrected values, and these values were compared. Furthermore, antibodies captured onto the chips were washed by 10 mM glycine-HCl pH1.5, and the chips were regenerated and used repeatedly. […] The value obtained by multiplying this value by 100 was used as an indicator of the relative FcγR-binding activity of each variant.

Point of comparison: B4, “Binding to human FcgRs (parent B3 = 100)” value 174 parent B3 = 100. Against it:
- B1 — lower, 75 parent B3 = 100
- B2 — lower, 95 parent B3 = 100
- B3 — higher, 195 parent B3 = 100
- B5 — lower, 87 parent B3 = 100
- B6 — lower, 88 parent B3 = 100
- B7 — lower, 72 parent B3 = 100
- B8 — higher, 184 parent B3 = 100
- B9 — lower, 110 parent B3 = 100
- B10 — lower, 100 parent B3 = 100
- B11 — lower, 94 parent B3 = 100
- B12 — higher, 198 parent B3 = 100
- B13 — lower, 130 parent B3 = 100
- B14 — higher, 252 parent B3 = 100
- B15 — lower, 114 parent B3 = 100
- B16 — lower, 108 parent B3 = 100
- B17 — lower, 55 parent B3 = 100
- B18 — lower, 117 parent B3 = 100
- B19 — higher, 179 parent B3 = 100
- B20 — lower, 148 parent B3 = 100
- B21 — higher, 307 parent B3 = 100
- B22 — lower, 40 parent B3 = 100
- B23 — higher, 212 parent B3 = 100
- B24 — lower, 90 parent B3 = 100
- B25 — lower, 160 parent B3 = 100
- B26 — lower, 43 parent B3 = 100
- B27 — higher, 283 parent B3 = 100
- B28 — lower, 61 parent B3 = 100
- B29 — lower, 46 parent B3 = 100

Target: T2, human FcγRIIaH extracellular domain, C-terminal His-tag (human, UniProt P12318 34-217)
T2 construct: also called human FcγRIIa (type H); FcgRIIaH
T2 sequence: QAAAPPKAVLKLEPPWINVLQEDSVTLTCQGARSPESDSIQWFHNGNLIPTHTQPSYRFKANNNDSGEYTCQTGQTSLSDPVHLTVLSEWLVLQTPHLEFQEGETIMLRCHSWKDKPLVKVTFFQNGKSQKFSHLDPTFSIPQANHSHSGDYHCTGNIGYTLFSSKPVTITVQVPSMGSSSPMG
Assay: as above
Procedure: as §1

Point of comparison: B15, “Binding to human FcgRs (parent B3 = 100)” value 93 parent B3 = 100. Against it:
- B1 — lower, 54 parent B3 = 100
- B2 — lower, 74 parent B3 = 100
- B3 — higher, 138 parent B3 = 100
- B4 — higher, 169 parent B3 = 100
- B5 — higher, 147 parent B3 = 100
- B7 — lower, 65 parent B3 = 100
- B8 — higher, 172 parent B3 = 100
- B10 — higher, 96 parent B3 = 100
- B11 — higher, 165 parent B3 = 100
- B12 — higher, 129 parent B3 = 100
- B13 — higher, 136 parent B3 = 100
- B14 — higher, 152 parent B3 = 100
- B16 — higher, 97 parent B3 = 100
- B17 — lower, 38 parent B3 = 100
- B18 — higher, 142 parent B3 = 100
- B19 — higher, 156 parent B3 = 100
- B20 — higher, 151 parent B3 = 100
- B21 — higher, 173 parent B3 = 100
- B22 — lower, 49 parent B3 = 100
- B23 — higher, 109 parent B3 = 100
- B24 — lower, 64 parent B3 = 100
- B25 — higher, 157 parent B3 = 100
- B26 — lower, 19 parent B3 = 100
- B27 — higher, 169 parent B3 = 100
- B28 — lower, 49 parent B3 = 100
- B29 — lower, 37 parent B3 = 100

Target: T3, human FcγRIIaR extracellular domain, C-terminal His-tag (human, UniProt P12318 34-217)
T3 construct: also called human FcγRIIa (type R); FcgRIIaR
T3 chain: T2 sequence with H134R
Assay: as above
Procedure: as §1

Point of comparison: B11, “Binding to human FcgRs (parent B3 = 100)” value 168 parent B3 = 100. Against it:
- B1 — lower, 81 parent B3 = 100
- B2 — lower, 0 parent B3 = 100
- B3 — lower, 127 parent B3 = 100
- B4 — lower, 137 parent B3 = 100
- B5 — lower, 161 parent B3 = 100
- B8 — lower, 132 parent B3 = 100
- B9 — lower, 55 parent B3 = 100
- B10 — lower, 67 parent B3 = 100
- B12 — lower, 139 parent B3 = 100
- B13 — lower, 128 parent B3 = 100
- B14 — lower, 130 parent B3 = 100
- B16 — lower, 72 parent B3 = 100
- B17 — lower, 50 parent B3 = 100
- B18 — lower, 131 parent B3 = 100
- B19 — lower, 135 parent B3 = 100
- B20 — lower, 127 parent B3 = 100
- B21 — lower, 142 parent B3 = 100
- B22 — lower, 13 parent B3 = 100
- B23 — lower, 91 parent B3 = 100
- B24 — lower, 63 parent B3 = 100
- B25 — lower, 131 parent B3 = 100
- B26 — lower, 4 parent B3 = 100
- B27 — lower, 132 parent B3 = 100
- B29 — lower, 12 parent B3 = 100
